Test results reported in publication PMC12445016 (Nature, 2025).

Tests used:
[1] = molecular target: GRK5-phosphorylated ACKR3·CXCL12_(LRHQ) (UniProt P25106); assay: pull-down
[2] = molecular target: T1, biotinylated Arr3* loaded with inositol hexakisphosphate (IP6) (bovine, UniProt P32120, biotin (EZ-link sulfo-NHS-Biotin; sites not stated)); assay: ELISA
T1 chain: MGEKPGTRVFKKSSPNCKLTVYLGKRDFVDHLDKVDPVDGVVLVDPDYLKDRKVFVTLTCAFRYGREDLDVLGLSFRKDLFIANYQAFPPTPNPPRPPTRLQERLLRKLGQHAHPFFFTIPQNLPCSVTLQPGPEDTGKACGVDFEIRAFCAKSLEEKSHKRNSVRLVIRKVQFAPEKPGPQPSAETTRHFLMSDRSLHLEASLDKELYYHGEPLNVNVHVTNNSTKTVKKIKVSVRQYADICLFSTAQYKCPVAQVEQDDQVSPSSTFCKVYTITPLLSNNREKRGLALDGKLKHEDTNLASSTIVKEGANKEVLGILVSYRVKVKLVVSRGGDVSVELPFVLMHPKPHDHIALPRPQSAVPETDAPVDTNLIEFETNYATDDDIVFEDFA

[3] = molecular target: T2, preactivated arrestin3 (truncated after residue 392) (bovine, UniProt P32120); assay: ELISA
T2 chain: T1 chain

Molecule: preactivated arrestin2 (I386A, V387A, F388A mutations in its C-tail) (from UniProt P17870 1-418) (natural protein)
- percent more pulled down than by pACKR3 (GRK2) [1]: 30%

Molecule: preactivated arrestin3 (truncated after residue 392) (from UniProt P32120 1-392) (domain or fragment)
- percent more pulled down than by pACKR3 (GRK2) [1]: 40%

B1: Fab7 (antigen binding fragment that recognizes active arrestin2 and arrestin3) (Fab, V domains shown)
VH: EVQLVESGGGLVQPGGSLRLSCAASGFNVSSSYIHWVRQAPGKGLEWVASISSYYGYTYYADSVKGRFTISADTSKNTAYLQMNSLRAEDTAVYYCARKSMYHRGWGWLSWVYGAMDYWGQGTLVTVSS
VL: DIQMTQSPSSLSASVGDRVTITCRASQSVSSAVAWYQQKPGKAPKLLIYSASSLYSGVPSRFSGSRSGTDFTLTISSLQPEDFATYYCQQSYYYPITFGQGTKVEIK
- EC50 [2]: ~10 nM
- IC50 [3]: ~90 nM
